Laboratory results: IntAct's records for PubMed 17805295

Molecular target: Cdh23, Q99PF4-1
Sequence (Q99PF4 whole entry): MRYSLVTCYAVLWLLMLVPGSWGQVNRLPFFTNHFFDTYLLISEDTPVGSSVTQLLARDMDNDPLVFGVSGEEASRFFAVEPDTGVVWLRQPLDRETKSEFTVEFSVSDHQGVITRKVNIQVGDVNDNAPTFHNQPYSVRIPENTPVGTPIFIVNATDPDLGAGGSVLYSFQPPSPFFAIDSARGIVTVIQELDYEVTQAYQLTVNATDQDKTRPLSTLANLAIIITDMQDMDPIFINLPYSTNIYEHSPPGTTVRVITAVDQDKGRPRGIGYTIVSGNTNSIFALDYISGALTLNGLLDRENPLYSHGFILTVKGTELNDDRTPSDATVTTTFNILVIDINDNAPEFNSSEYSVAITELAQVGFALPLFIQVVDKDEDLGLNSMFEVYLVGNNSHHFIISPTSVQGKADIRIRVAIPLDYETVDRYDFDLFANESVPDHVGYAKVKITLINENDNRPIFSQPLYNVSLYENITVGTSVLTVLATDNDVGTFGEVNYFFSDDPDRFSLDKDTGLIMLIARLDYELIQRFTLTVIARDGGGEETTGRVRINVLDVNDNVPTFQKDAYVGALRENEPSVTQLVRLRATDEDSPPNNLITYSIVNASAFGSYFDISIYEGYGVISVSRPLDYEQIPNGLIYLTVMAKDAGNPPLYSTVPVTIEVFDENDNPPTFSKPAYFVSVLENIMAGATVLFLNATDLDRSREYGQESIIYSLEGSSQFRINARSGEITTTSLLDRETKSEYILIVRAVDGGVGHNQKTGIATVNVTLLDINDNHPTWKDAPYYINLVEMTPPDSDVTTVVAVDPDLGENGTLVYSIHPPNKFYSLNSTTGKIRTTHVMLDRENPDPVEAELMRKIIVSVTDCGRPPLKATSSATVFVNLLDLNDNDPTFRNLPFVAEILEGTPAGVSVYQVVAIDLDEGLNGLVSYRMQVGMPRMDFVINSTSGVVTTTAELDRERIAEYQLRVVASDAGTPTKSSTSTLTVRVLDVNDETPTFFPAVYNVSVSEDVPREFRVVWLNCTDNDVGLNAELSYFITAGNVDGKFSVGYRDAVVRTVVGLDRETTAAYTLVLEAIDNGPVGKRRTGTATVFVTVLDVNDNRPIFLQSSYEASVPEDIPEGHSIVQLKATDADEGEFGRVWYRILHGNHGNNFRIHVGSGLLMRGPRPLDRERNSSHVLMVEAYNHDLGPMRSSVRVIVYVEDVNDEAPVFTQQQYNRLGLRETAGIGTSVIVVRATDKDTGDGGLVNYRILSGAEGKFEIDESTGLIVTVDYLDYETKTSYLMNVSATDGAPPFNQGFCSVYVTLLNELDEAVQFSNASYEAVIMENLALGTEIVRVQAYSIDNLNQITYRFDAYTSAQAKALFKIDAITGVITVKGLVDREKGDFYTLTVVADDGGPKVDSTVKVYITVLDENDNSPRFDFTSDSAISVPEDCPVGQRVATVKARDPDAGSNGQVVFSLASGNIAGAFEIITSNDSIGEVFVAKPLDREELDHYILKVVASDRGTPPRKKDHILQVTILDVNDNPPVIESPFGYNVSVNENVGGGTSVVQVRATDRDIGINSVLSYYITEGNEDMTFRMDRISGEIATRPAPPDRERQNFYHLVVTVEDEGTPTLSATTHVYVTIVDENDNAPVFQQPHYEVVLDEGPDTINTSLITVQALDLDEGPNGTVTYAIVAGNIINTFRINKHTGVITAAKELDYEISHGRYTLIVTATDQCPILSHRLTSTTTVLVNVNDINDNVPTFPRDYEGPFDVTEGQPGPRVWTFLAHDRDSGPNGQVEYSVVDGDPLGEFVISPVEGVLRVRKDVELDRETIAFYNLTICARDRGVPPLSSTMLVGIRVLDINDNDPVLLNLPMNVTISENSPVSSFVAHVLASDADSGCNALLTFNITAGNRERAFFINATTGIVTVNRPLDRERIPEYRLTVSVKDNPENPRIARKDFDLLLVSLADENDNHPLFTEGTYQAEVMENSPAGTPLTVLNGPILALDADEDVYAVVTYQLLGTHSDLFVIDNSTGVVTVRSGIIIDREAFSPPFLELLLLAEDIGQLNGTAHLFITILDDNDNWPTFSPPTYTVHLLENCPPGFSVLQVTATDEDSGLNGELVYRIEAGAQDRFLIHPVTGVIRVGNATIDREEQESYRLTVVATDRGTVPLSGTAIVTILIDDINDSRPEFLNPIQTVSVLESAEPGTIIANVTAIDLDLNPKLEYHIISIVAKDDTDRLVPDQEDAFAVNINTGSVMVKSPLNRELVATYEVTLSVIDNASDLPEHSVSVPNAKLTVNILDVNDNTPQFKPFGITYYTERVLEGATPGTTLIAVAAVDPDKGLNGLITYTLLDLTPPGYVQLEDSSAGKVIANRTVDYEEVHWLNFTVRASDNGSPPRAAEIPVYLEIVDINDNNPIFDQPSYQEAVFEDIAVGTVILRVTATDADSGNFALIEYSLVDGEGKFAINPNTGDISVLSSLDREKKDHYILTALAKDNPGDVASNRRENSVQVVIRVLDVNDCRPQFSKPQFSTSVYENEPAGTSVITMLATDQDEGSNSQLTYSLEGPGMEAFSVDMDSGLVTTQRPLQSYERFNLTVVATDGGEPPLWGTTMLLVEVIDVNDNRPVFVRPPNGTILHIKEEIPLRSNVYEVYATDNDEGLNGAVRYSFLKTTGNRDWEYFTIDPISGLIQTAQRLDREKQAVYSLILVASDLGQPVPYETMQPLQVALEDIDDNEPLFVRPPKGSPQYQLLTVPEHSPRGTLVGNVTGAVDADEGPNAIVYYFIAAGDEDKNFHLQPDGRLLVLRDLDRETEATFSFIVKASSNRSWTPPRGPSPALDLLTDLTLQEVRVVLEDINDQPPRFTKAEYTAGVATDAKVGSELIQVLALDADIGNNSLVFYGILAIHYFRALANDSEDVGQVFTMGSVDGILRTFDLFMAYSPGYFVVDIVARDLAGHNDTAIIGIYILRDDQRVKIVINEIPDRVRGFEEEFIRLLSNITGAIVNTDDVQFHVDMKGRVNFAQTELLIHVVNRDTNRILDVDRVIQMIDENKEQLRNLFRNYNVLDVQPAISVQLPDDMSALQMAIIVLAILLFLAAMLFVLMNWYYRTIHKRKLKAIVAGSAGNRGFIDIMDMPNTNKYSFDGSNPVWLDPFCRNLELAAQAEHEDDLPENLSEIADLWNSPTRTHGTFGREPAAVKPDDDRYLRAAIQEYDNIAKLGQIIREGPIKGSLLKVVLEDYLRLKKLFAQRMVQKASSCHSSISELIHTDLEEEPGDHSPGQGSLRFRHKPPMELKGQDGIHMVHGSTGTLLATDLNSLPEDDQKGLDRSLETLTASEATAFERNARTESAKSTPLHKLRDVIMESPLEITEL

Substance: Protocadherin-15 (Mus musculus), Q99PJ1 R139G
- effect of a mutation on the interaction: disrupting interaction strength
